# Biological target: human insulin receptor (IR), overexpressed in rat fibroblasts (HIRc B cells) (human) (UniProt P06213)
# Experiment: cell-based or functional assay
substance,measurement,value
recombinant human AHSG (α2-Heremans Schmid Glycoprotein) (from UniProt P02765 19-367),"insulin-induced IR autophosphorylation in intact HIRc B cells, rhAHSG at 1.8 µM",> 50%

# From patent US20040198648A1
